Test [1] concerns PBMC from mite-allergic patient. Put plainly: primary T cell (PBMC) proliferation, mite-allergic patient, tritiated thymidine. In kind it is cell-based, human. Particulars: for CPM ± S.D.: medium 1071 ± 30. As to the method:
Peripheral blood mononuclear cells (PBMC) were purified by Ficoll-Hypaque centrifugation of a peripheral blood specimen from mite-allergic patient and were assayed for proliferation in response to various antigens, i.e., affinity-purified Der p I, affinity purified Der p II, various Der p I and Der p II peptides. For assay, 5×10^4 PBMC were cultured in triplicate microwells for 7 days at 37° C. in the presence of various concentrations of antigen in 200 μl RPMI-1640 containing 5% human AB serum. Each well then received 1 μCi tritiated thymidine for 16 hours. The counts incorporated were collected onto glass fiber filters and processed for liquid scintillation counting. […] The CPM +/- standard deviation are shown. The stimulation index of each response (S.I.) is the ratio of the ^3 H-thymidine CPM incorporated by the cells in response to antigen divided by the ^3 H-thymidine CPM incorporated by cells in medium only. […] Thus, these peptides contain Der p I or Der p II T cell epitopes recognized by T cells from this particular allergic patient.

The subject of the next test is human IgE. In words: direct binding ELISA of IgE to mite allergen proteins and peptides. To be noted: for IgE binding (ELISA), modified peptides: plasma of 19 mite-allergic patients and pool of 18, Example XV; for IgE binding (ELISA): pooled human plasma, 20 patients, FIGS. 19-21. As to the method: The coating antigens were removed and the wells are blocked with 0.5% gelatin in PBS, 300 μl/well for 2 hours at room temperature. Pooled human plasma (a mix of plasma samples from 20 patients that were skin test positive for commerical mite extract) was serially diluted with PBS-Tween 20 (PBS with 0.05% nonionic detergent Tween-20 Sigma, St. Louis, Mo.) and 100 μl/well a.backslash.was added and incubated overnight at 4° C. (plasma dilutions were tested in duplicate). The second antibody (biotinylated goat anti-Human IgE, 1:1000, Kirkegaard & Perry Laboratories Inc, Gaithersburg, Md.), was added at 100 μl/well for one hour at room temperature. This solution was removed and streptavidin-HRPO, 1:10000, (Southern Biotechnology Associates, Inc., Birmingham, Ala.) was then added at 100 μl/well for one hour at room temperature (all wells are washed three times with PBS-Tween between each incubation step). TMB Membrane Peroxidase Substrate system (Kirkegaard & Perry Laboratories) was freshly miced, and added at […]. The color was allowed to develop for 2-5 minutes. The reaction was stopped by the addition of […] of 1M phosphoric acid. Plates were read on a Microplate IL310 Autoreader (Biotech Instruments, Winooski, Vt.) with a 450 nm filter. The absorbance levels of duplicate wells were averaged. The order of coating antigens listed vertically in these figure legends corresponds in orDer from left to right to the coating antigens listed for each histogram.
The antigen preparation that was used as a positive control was a mixture of the four major biochemically purified mite allergens (term PMA for Purified Mite Allergen); Der f I, Der f II, Der p I and Der p II. The stock was generated at a concentration of 100 μgs of each protein per millimeter or 400 μgs total protein/ml. This preparation was used on each coated ELISA plate.
A general note: ELISA stands for enzyme-linked immunosorbent assay.

B1: Der p I: affinity purified native group I allergen of Dermatophagoides pteronyssinus (protein)
chain: KNRFLMSAEAFEHLKTQFDLNAETNACSINGNAPAEIDLRQMRTVTPIRMQGGCGSCWAFSGVAATESAYLAHRNQSLDLAEQELVDCASQHGCHGDTIPRGIEYIQHNGVVQESYYRYVAREQSCRRPNAQRFGISNYCQIYPPNANKIREALAQTHSAIAVIIGIKDLDAFRHYDGRTIIQRDNGYQPNYHAVNIVGYSNAQGVDYWIVRNSWDTNWGDNGYGYFAANIDLMMIEEYPYVVIL
Turning to B1, the S.I. was 0.9 in test [1] (10 μg/ml), 2.0 in test [1] (30 μg/ml) and 1.4 in test [1] (100 μg/ml). Further, the “CPM ± S.D.” value was 920 ± 15 CPM in test [1] (10 μg/ml), 2122 ± 93 CPM in test [1] (30 μg/ml) and 1492 ± 13 CPM in test [1] (100 μg/ml). For the same molecule, in the test with human IgE, the “IgE binding (ELISA), modified peptides” value was “All samples did contain IgE”.

B2: biochemically purified Der f II: purified native group II allergen of Dermatophagoides farinae (protein)
chain: DQVDVKDCANNEIKKVMVDGCHGSDPCIIHRGKPFTLEALFDANQNTKTAKTEIKASLDGLEIDVPGIDTNACHFMKCPLVKGQQYDAKYTWNVPKIAPKSENVVVTVKLVGDNGVLACAIATHAKIRD
Turning to B2, the “IgE binding (ELISA)” value in the test on human IgE is on record as “binding”.

B3: Der p II: affinity purified native group II allergen of Dermatophagoides pteronyssinus (protein)
chain: MMYKILCLSLLVAAVARDQVDVKDCANHEIKKVLVPGCHGSEPCIIHRGKPFQLEAVFEANQNTKTAKIEIKASIDGLEVDVPGIDPNACHYMKCPLVKGQQYDIKYTWNVPKIAPKSENVVVTVKVMGDDGVLACAIATHAKIRD
For B3, in test [1] (10 μg/ml), the S.I. is recorded as 1.0 and the “CPM ± S.D.” value is recorded as 1113 ± 35 CPM. In test [1] (30 μg/ml), the S.I. is 2.0 and the “CPM ± S.D.” value worked out at 2104 ± 43 CPM. In test [1] (100 μg/ml), the S.I. is 1.0 and the “CPM ± S.D.” value is on record as 1057 ± 27 CPM. In the test with human IgE, the “IgE binding (ELISA), modified peptides” value is recorded as “All samples did contain IgE” and the “IgE binding (ELISA)” value was “good binding”.

B4: biochemically purified Der f-- I: purified native group I allergen of Dermatophagoides farinae (protein)
chain: MKFVLAIASLLVLSTVYARPASIKTFEEFKKAFNKNYATVEEEEVARKNFLESLKYVEANKGAINHLSDLSLDEFKNRYLMSAEAFEQLKTQFDLNAETSACRINSVNVPSELDLRSLRTVTPIRMQGGCGSCWAFSGVAATESAYLAYRNTSLDLSEQELVDCASQHGCHGDTIPRGIEYIQQNGVVEERSYPYVAREQRCRRPNSQHYGISNYCQIYPPDVKQIREALTQTHTAIAVIIGIKDLRAFQHYDGRTIIQHDNGYQPNYHAVNIVGYGSTQGDDYWIVRNSWDTTWGDSGYGYFQAGNNLMMIEQYPYVVIM
In the case of B4, the “IgE binding (ELISA)” value in the test with human IgE is “binding”.
